{
  "source": "patent US20100272736A1",
  "about": "“COMBINATION ANTIBIOTIC AND ANTIBODY THERAPY FOR THE TREATMENT OF PSEUDOMONAS AERUGINOSA INFECTION” (priority 2009, published 2010)",
  "key": {"[1]": {"biological_target": "PcrV antigen of Pseudomonas aeruginosa (recombinant PcrV) (Pseudomonas aeruginosa)", "experiment": "biolayer interferometry, ForteBio Octet"}, "[2]": {"biological_target": "PcrV on Pseudomonas aeruginosa strain PA103 (type III secretion system) (Pseudomonas aeruginosa strain PA103)", "experiment": "cell-based or functional assay"}},
  "data": [
    {"substance": "Mab166 Fab", "values": [
      {"measurement": "Kd", "setting": "[1]", "result": 1.4, "unit": "nM"},
      {"measurement": "IC50 (nM), TTSS-dependent cytotoxicity assay (PA103 killing of P3-X63-Ag8 myeloma cells, propidium iodide flow cytometry)", "setting": "[2]", "result": 53, "unit": "nM"}
    ]}
  ]
}
